Reference: the DeepSol protein solubility set

assay: soluble on expression in E. coli; label from the status in PepcDB or PDB records

Sequence | soluble on expression in E. coli
SLGWIKRLIRMVFQQVGVSMQSVLWSRKPYGSSRSIVRKIGTNLSLIQCPRVQFQINSHATEWSPSHPGEDAVASFADVGWVAKEEGECSARLRTEVRSRPPLQDDLLFFEKAPSRQISLPDLSQEEPQLKTPARANEEALQKICALENELAALRAQIAKIVTQQEQQNLTAGDLDSTTFGTIPPHPPPPPPPLPPPALGLHQSTSAVDLIKERREKRANAGKTLVKNNPKKPEMPNMLEILKEMNSVKLRSVKRSEQDVKPKPVDATDPAALIAEALKKKFAYRYRSDSQDEVEKGIPKSESEATSERVLFGPHMLKPTGKMKALIENVSDS | not soluble
MRIVALEGIDGSGVSTHSRLLHARLAGAGVKSCLWKEPTEGPVGRLIRGFLRSTEGVDSDLMALLFAADRLWGLRLGVVERCGGSPEVLVVDRYKYSSLAYQGVGSGLEWVDAVNRKAPEAEILVYIDVPTEVALRRITARERREVFETPEFLERVKSMYEEVLRLARARGVKVIRVEGVRGGVERGIEDVQGEIAERVFEALGLARA | soluble
MNELDGIKQFTTVVADSGDIESIRHYHPQDATTNPSLLLKAAGLSQYEHLIDDAIAWGKKNGKTQEQQVVAACDKLAVNFGAEILKIVPGRVSTEVDARLSFDKEKSIEKARHLVDLYQQQGVEKSRILIKLASTWEGIRAAEELEKEGINCNLTLLFSFAQARACAEAGVFLISPFVGRIYDWYQARKPMDPYVVEEDPGVKSVRNIYDYYKQHHYETIVMGASFRRTEQILALTGCDRLTIAPNLLKELQEKVSPVVRKLIPPSQTFPRPAPMSEAEFRWEHNQDAMAVEKLSEGIRLFAVDQRKLEDLLAAKL | soluble
YRQQFDFSCGSAALASLLTFHYDDSVDEQSVFVDMFQHGDQEKIRREGFSMLDMKRYLERRGYGSDGFKINLDQLYSTGSPAITIINHNGYMHFVIIKGVDEDRVLVGDPAQGVKSMDRTEFERMWGNRIVFLIHNHVD | not soluble
GSDGTREFLTFEVPLNDSGSAGLGVSVKGNRSKENHADLGIFVKSIINGGAASKDGRLRVNDQLIAVNGESLLGKANQEAMETLRRSMSTEGNKRGMIQLIVARRISRCNE | soluble
MSLDVDLAPPGPLAAGGLRVTALGGISEIGRNMTVFEHLGRLLIIDCGVMFPTHDEPGVDLILPDLRHIEDRLDDIEALVLTHAHEDHIGGIPYLLKLRPDIPVVGSKFTLALVAAKCREHRLKPVFVEVSEGHKSTHGVFECEYFAVNHSIPDALAIAVHTGAGTVLHTGDIKLDQLPLDGRPTDLPGMSRLGDAGVDLFLCDSTNAELPGVGPSESEVGPTLHRLIRGAEGRVIVACFASNVDRVQQIIDAAVALGRRVSFVGRSMVRNMGIARELGFLRVADADVIDIGAAELMPPERVVLITTGTQGEPMSALSRMSRGEHRSITLTAGDLVVLASSLIPGNEEAVYGVIDELAKIGARVVTNAQARVHVSGHAYAGELLFLYNGVRPRHVMPVHGTWRMLRANSKLAARTGVPEESILLAENGVSVDLVAGRASISGAVPVGKMFVDGLVDGDVGDITLGERLILSSGFVAVTVVVQRGTGRPVAPPHLHSRGFSEDPKALEPAVRRVEEELEALVAENITDPSRIAQGVRRTVGKWVGETYRRQPMIVPTVIEVEGHHHHHH | soluble
MAHHHHHHMKKPEHVRNIVYEIKRKVQIPVSVKIRTGVDDCDSFPFLRSFIECVSSVGCTHFIVHARKAWLKGLDPKQNRSVPPLQYSKVYTLCQLYPHLKFTLNGGIKTIEEAVALLNGYLPREDKCDGEKTYVQVQNYHVNPLNGVMLGRACMENTTVLSQTDQLVYNEKPPHTAFSRRTVLDAYKSYLEENSSLCSLSSAFELLKPILGILKGMPGHRIFRNKVDMYIRNYSSTLPCSGILEKAMVDVDAVAPGCLDLPLADYKLQQEYIKNY | not soluble
MIVRSYLYEKLNGDVRCKTCWHRCIIKEGKTGICRVRKNEGGELLVLNYGMASSIALDPIEKKPLNNFKPGSKVLSFGSVSCNFRCLHCQNFEIAFADLDYSYLREIDPDTVLRMCIDRRADGVAWTYNEPAIWHEFALDSSKLVKESGYYVVYVTNGYMTPEAVDQFEGVLDAANVDVKAFSEDFYKKICKAKLEHVLETVEYLHRKGVFVELTYLIIPGENDSREELRDFCRWVADLSPKIPVHFSRFHPDYKMLDKPPTPVEKIEEAVEIAKKEGIEYVYAGNVWGHRYENTYCPNCGELLIEREGFYVYNINLVRDNPPKCPNCGYAQNIIL | not soluble
